Results: PMC9482650, “Quantitative fragmentomics allow affinity mapping of interactomes” (Nature Communications, 2022)

T1: CARD11, Q9BXL7
T1 sequence (Q9BXL7 662-765, limits assumed, looked up): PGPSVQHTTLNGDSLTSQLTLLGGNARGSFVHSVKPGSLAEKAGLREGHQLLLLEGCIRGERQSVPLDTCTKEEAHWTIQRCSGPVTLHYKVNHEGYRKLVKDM

T2: DFNB31_2, Q9P202
T2 sequence (Q9P202 274-371, limits assumed, looked up): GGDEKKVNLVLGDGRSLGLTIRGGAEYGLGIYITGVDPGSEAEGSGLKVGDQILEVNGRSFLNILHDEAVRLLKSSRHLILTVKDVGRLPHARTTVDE

T3: DFNB31_3, Q9P202
T3 sequence (Q9P202 811-907, limits assumed, looked up): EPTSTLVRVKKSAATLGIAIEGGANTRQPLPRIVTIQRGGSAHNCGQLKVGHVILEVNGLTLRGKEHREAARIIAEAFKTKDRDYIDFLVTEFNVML

T4: LIN7A, O14910
T4 sequence (O14910 103-200, limits assumed, looked up): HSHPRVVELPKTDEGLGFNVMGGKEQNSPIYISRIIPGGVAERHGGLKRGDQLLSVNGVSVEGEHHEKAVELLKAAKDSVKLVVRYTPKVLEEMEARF

T5: MPDZ_5, O75970
T5 sequence (O75970 695-796, limits assumed, looked up): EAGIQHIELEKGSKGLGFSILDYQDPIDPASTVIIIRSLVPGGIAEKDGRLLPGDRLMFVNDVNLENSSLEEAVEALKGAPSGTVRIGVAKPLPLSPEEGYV

T6: MPP6, Q9NZW5
T6 sequence (Q9NZW5 125-219, limits assumed, looked up): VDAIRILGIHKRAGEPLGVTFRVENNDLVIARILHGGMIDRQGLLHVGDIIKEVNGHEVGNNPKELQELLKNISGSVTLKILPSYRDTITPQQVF

T7: NHERF3_1, Q5T2W1
T7 sequence (Q5T2W1 4-100, limits assumed, looked up): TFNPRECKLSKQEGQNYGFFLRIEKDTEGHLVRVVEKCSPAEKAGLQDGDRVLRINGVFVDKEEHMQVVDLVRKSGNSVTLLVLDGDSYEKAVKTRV

T8: NHERF3_4, Q5T2W1
T8 sequence (Q5T2W1 373-468, limits assumed, looked up): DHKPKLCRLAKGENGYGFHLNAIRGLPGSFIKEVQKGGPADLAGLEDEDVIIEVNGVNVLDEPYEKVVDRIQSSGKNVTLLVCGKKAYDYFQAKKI

T9: PCLO, Q9Y6V0
T9 sequence (Q9Y6V0 4491-4600, limits assumed, looked up): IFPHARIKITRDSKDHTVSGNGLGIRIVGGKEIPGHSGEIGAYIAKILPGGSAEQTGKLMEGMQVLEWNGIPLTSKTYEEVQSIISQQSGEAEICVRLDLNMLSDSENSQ

T10: PDZD2_2, O15018
T10 sequence (O15018 329-429, limits assumed, looked up): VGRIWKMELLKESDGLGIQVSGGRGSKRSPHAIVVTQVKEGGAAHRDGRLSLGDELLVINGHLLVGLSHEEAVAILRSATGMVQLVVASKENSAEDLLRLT

T11: SIPA1L2, Q9P2F8
T11 sequence (Q9P2F8 945-1036, limits assumed, looked up): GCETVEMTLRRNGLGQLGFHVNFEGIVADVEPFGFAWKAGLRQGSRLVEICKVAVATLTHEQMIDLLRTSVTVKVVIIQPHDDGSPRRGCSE

T12: SNTA1, Q13424
T12 sequence (Q13424 82-180, limits assumed, looked up): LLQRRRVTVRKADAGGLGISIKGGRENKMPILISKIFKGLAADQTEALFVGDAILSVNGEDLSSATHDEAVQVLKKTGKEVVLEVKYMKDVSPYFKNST


Tests used:
Assay in all cases: holdup assay
Set-up in all cases: key: below the threshold = too weak to quantify, mostly under pKd 3.1 to 4
Conditions in all cases: plain residues with an end cap or a label only (N-terminal biotin on a linker: ado-ado)
CARD11, Q9BXL7 = biological target: T1, CARD11, Q9BXL7
DFNB31_2, Q9P202 = biological target: T2, DFNB31_2, Q9P202
DFNB31_3, Q9P202 = biological target: T3, DFNB31_3, Q9P202
DLG1_1, Q12959 = biological target: DLG1_1, Q12959
DLG1_2, Q12959 = biological target: DLG1_2, Q12959
DLG2_3, Q15700 = biological target: DLG2_3, Q15700
FRMPD2_2, Q68DX3 = biological target: FRMPD2_2, Q68DX3
Sequence of FRMPD2_2, Q68DX3 (Q68DX3 944-1038): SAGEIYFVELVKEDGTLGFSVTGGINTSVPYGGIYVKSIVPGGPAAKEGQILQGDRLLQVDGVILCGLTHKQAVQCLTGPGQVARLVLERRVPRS

FRMPD2_3, Q68DX3 = biological target: FRMPD2_3, Q68DX3
Sequence of FRMPD2_3, Q68DX3 (Q68DX3 1073-1166): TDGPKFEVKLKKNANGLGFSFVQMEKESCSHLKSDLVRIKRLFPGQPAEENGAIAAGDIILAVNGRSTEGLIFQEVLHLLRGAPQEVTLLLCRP

GIPC2, Q8TF65 = biological target: GIPC2, Q8TF65
Sequence of GIPC2, Q8TF65 (Q8TF65 112-203): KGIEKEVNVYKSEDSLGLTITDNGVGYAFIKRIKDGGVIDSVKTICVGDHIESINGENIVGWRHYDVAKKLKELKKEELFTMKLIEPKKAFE

GRASP, Q7Z6J2 = biological target: GRASP, Q7Z6J2
Sequence of GRASP, Q7Z6J2 (Q7Z6J2 96-193): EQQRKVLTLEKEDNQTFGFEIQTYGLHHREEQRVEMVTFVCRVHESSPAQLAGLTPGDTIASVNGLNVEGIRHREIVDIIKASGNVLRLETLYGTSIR

GRID2IP_2, A4D2P6 = biological target: GRID2IP_2, A4D2P6
Sequence of GRID2IP_2, A4D2P6 (A4D2P6 272-370): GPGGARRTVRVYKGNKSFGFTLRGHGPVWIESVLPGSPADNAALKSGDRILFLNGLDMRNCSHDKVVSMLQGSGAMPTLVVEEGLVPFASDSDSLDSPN

GRIP2_5, Q9C0E4 = biological target: GRIP2_5, Q9C0E4
Sequence of GRIP2_5, Q9C0E4 (Q9C0E4 544-642): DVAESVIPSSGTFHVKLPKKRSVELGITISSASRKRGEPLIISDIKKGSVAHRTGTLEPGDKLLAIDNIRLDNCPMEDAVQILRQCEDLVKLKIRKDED

GRIP2_6, Q9C0E4 = biological target: GRIP2_6, Q9C0E4
Sequence of GRIP2_6, Q9C0E4 (Q9C0E4 648-740): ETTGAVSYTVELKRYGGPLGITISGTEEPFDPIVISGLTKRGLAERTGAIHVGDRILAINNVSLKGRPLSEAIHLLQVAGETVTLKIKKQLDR

IL16_3, Q14005 = biological target: IL16_3, Q14005
Sequence of IL16_3, Q14005 (Q14005 1107-1207): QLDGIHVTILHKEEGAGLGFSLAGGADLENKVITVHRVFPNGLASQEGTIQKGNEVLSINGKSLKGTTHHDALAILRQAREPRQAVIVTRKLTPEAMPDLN

LIN7A, O14910 = biological target: T4, LIN7A, O14910
MAGI2_2, Q86UL8 = biological target: MAGI2_2, Q86UL8
Sequence of MAGI2_2, Q86UL8 (Q86UL8 410-522): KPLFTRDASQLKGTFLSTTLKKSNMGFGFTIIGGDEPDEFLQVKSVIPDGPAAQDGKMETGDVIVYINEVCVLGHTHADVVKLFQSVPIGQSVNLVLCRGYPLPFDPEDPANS

MAST1, Q9Y2H9 = biological target: MAST1, Q9Y2H9
Sequence of MAST1, Q9Y2H9 (Q9Y2H9 962-1065): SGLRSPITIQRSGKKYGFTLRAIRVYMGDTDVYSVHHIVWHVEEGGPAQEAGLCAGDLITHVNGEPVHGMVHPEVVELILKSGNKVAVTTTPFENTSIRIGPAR

MPDZ_5, O75970 = biological target: T5, MPDZ_5, O75970
MPP6, Q9NZW5 = biological target: T6, MPP6, Q9NZW5
NHERF2_2, Q15599 = biological target: NHERF2_2, Q15599
Sequence of NHERF2_2, Q15599 (Q15599 142-238): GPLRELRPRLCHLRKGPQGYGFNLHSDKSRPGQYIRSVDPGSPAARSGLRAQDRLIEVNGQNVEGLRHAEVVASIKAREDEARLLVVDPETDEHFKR

NHERF3_1, Q5T2W1 = biological target: T7, NHERF3_1, Q5T2W1
NHERF3_4, Q5T2W1 = biological target: T8, NHERF3_4, Q5T2W1
PCLO, Q9Y6V0 = biological target: T9, PCLO, Q9Y6V0
PDZD2_2, O15018 = biological target: T10, PDZD2_2, O15018
SIPA1L2, Q9P2F8 = biological target: T11, SIPA1L2, Q9P2F8
SNTA1, Q13424 = biological target: T12, SNTA1, Q13424

Binder | pKd (CARD11, Q9BXL7) | pKd (DFNB31_2, Q9P202) | pKd (DFNB31_3, Q9P202) | pKd (DLG1_1, Q12959) | pKd (DLG1_2, Q12959) | pKd (DLG2_3, Q15700) | pKd (FRMPD2_2, Q68DX3) | pKd (FRMPD2_3, Q68DX3) | pKd (GIPC2, Q8TF65) | pKd (GRASP, Q7Z6J2) | pKd (GRID2IP_2, A4D2P6) | pKd (GRIP2_5, Q9C0E4) | pKd (GRIP2_6, Q9C0E4) | pKd (IL16_3, Q14005) | pKd (LIN7A, O14910) | pKd (MAGI2_2, Q86UL8) | pKd (MAST1, Q9Y2H9) | pKd (MPDZ_5, O75970) | pKd (MPP6, Q9NZW5) | pKd (NHERF2_2, Q15599) | other results
QSLNRMEYIV [JAG1, P78504] | below the threshold | below the threshold | 3.86 | below the threshold | below the threshold | 3.96 | below the threshold | 4.36 | below the threshold | below the threshold | below the threshold | below the threshold | 4.61 | below the threshold | below the threshold | 3.91 | 3.49 | 4.07 | 3.9 | below the threshold | pKd (NHERF3_1, Q5T2W1): below the threshold; pKd (NHERF3_4, Q5T2W1): below the threshold; pKd (PCLO, Q9Y6V0): below the threshold; pKd (PDZD2_2, O15018): below the threshold; pKd (SIPA1L2, Q9P2F8): below the threshold; pKd (SNTA1, Q13424): below the threshold
LPHGHSTTRV [NLGN4X, Q8N0W4] | below the threshold | below the threshold | 3.96 | 3.82 | 4.04 | 4.42 | 3.63 | below the threshold | below the threshold | 4.29 | 3.84 | below the threshold | below the threshold | below the threshold | below the threshold | 4.95 | 4.7 | below the threshold | below the threshold | 3.78 | pKd (NHERF3_1, Q5T2W1): 3.88; pKd (NHERF3_4, Q5T2W1): 3.85; pKd (PCLO, Q9Y6V0): below the threshold; pKd (PDZD2_2, O15018): 3.53; pKd (SIPA1L2, Q9P2F8): below the threshold; pKd (SNTA1, Q13424): 4.05
YYKRPVQEWV [MMP24, Q9Y5R2] | below the threshold | below the threshold | 3.63 | below the threshold | 3.99 | 3.7 | below the threshold | 3.52 | below the threshold | 3.88 | 3.89 | below the threshold | below the threshold | below the threshold | below the threshold | below the threshold | below the threshold | 4.03 | below the threshold | below the threshold | pKd (NHERF3_1, Q5T2W1): 4.24; pKd (NHERF3_4, Q5T2W1): below the threshold; pKd (PCLO, Q9Y6V0): below the threshold; pKd (PDZD2_2, O15018): 5.65; pKd (SIPA1L2, Q9P2F8): below the threshold; pKd (SNTA1, Q13424): below the threshold
VRNLPESEEL [MYOZ3, Q8TDC0] | below the threshold | below the threshold | below the threshold | below the threshold | below the threshold | below the threshold | below the threshold | below the threshold | below the threshold | 3.74 | below the threshold | below the threshold | below the threshold | below the threshold | below the threshold | below the threshold | 4.11 | below the threshold | 3.64 | 3.64 | pKd (NHERF3_1, Q5T2W1): 3.88; pKd (NHERF3_4, Q5T2W1): below the threshold; pKd (PCLO, Q9Y6V0): below the threshold; pKd (PDZD2_2, O15018): below the threshold; pKd (SIPA1L2, Q9P2F8): below the threshold; pKd (SNTA1, Q13424): 3.57
GNSVLKSTQF [SLC22A12, Q96S37] | below the threshold | below the threshold | 3.56 | below the threshold | below the threshold | 3.74 | below the threshold | below the threshold | below the threshold | 4.07 | below the threshold | below the threshold | below the threshold | below the threshold | below the threshold | below the threshold | 4.26 | below the threshold | below the threshold | 4.47 | pKd (NHERF3_1, Q5T2W1): 6.17; pKd (NHERF3_4, Q5T2W1): 5.45; pKd (PCLO, Q9Y6V0): below the threshold; pKd (PDZD2_2, O15018): below the threshold; pKd (SIPA1L2, Q9P2F8): below the threshold; pKd (SNTA1, Q13424): below the threshold
